Assay results from publication PMC4351158 (Structure (London, England : 1993), 2015).

Tested on: periplasmic domain of RseA
Assay: Cleavage of 35S-labeled RseA periplasmic domain by DegS variants
Type: biochemical, E. coli
Conditions: for YYF-stimulated cleavage activity relative to H198P parental enzyme: % of H198P parent
[1] = WT background, compared to wild-type DegS
[2] = H198P background, compared to H198P

| Molecule | YYF-stimulated cleavage activity, in words [1] | YYF-stimulated cleavage activity relative to H198P parental enzyme (H198P background, with YYF) | other results |
| --- | --- | --- | --- |
| I179A: DegS variant I179A (protein, left off: His6, N-terminal, state not stated) RSLNPLSTPQFDSTDETPASYNLAVRRAAPAVVNVYNRGLNTNSHNQLEIRTLGSGVIMDQRGYIITNKHVINDADQIIVALQDGRVFEALLVGSDSLTDLAVLKINATGGLPTIPINARRVPHIGDVVLAIGNPYNLGQTITQGIISATGRAGLNPTGRQNFLQTDASINHGNSGGALVNSLGELMGINTLSFDKSNDGETPEGIGFAIPFQLATKIMDKLIRDGRVIRGYIGIGGREIAPLHAQGGGIDQLQGIVVNEVSPDGPAANAGIQVNDLIISVDNKPAISALETMDQVAEIRPGSVIPVVVMRDDKQLTLQVTIQEYPATN | reduced YYF-stimulated cleavage activity compared to wild-type DegS | – | – |
| Q187A: DegS variant Q187A (protein, left off: His6, N-terminal, state not stated) RSLNPLSTPQFDSTDETPASYNLAVRRAAPAVVNVYNRGLNTNSHNQLEIRTLGSGVIMDQRGYIITNKHVINDADQIIVALQDGRVFEALLVGSDSLTDLAVLKINATGGLPTIPINARRVPHIGDVVLAIGNPYNLGQTITQGIISATGRIGLNPTGRANFLQTDASINHGNSGGALVNSLGELMGINTLSFDKSNDGETPEGIGFAIPFQLATKIMDKLIRDGRVIRGYIGIGGREIAPLHAQGGGIDQLQGIVVNEVSPDGPAANAGIQVNDLIISVDNKPAISALETMDQVAEIRPGSVIPVVVMRDDKQLTLQVTIQEYPATN | reduced YYF-stimulated cleavage activity compared to wild-type DegS | – | – |
| D221A: DegS variant D221A (protein, left off: His6, N-terminal, state not stated) RSLNPLSTPQFDSTDETPASYNLAVRRAAPAVVNVYNRGLNTNSHNQLEIRTLGSGVIMDQRGYIITNKHVINDADQIIVALQDGRVFEALLVGSDSLTDLAVLKINATGGLPTIPINARRVPHIGDVVLAIGNPYNLGQTITQGIISATGRIGLNPTGRQNFLQTDASINHGNSGGALVNSLGELMGINTLSFAKSNDGETPEGIGFAIPFQLATKIMDKLIRDGRVIRGYIGIGGREIAPLHAQGGGIDQLQGIVVNEVSPDGPAANAGIQVNDLIISVDNKPAISALETMDQVAEIRPGSVIPVVVMRDDKQLTLQVTIQEYPATN | reduced YYF-stimulated cleavage activity compared to wild-type DegS | – | – |
| I179A/H198P (protein, UniProt P0AEE3 1-355, looked up, variant I179A H198P) Serine endoprotease DegS: MFVKLLRSVAIGLIVGAILLVAMPSLRSLNPLSTPQFDSTDETPASYNLAVRRAAPAVVNVYNRGLNTNSHNQLEIRTLGSGVIMDQRGYIITNKHVINDADQIIVALQDGRVFEALLVGSDSLTDLAVLKINATGGLPTIPINARRVPHIGDVVLAIGNPYNLGQTITQGIISATGRAGLNPTGRQNFLQTDASINPGNSGGALVNSLGELMGINTLSFDKSNDGETPEGIGFAIPFQLATKIMDKLIRDGRVIRGYIGIGGREIAPLHAQGGGIDQLQGIVVNEVSPDGPAANAGIQVNDLIISVDNKPAISALETMDQVAEIRPGSVIPVVVMRDDKQLTLQVTIQEYPATN | – | ≥ 65% | – |
| Q187A/H198P (protein, UniProt P0AEE3 1-355, looked up, variant Q187A H198P) Serine endoprotease DegS: MFVKLLRSVAIGLIVGAILLVAMPSLRSLNPLSTPQFDSTDETPASYNLAVRRAAPAVVNVYNRGLNTNSHNQLEIRTLGSGVIMDQRGYIITNKHVINDADQIIVALQDGRVFEALLVGSDSLTDLAVLKINATGGLPTIPINARRVPHIGDVVLAIGNPYNLGQTITQGIISATGRIGLNPTGRANFLQTDASINPGNSGGALVNSLGELMGINTLSFDKSNDGETPEGIGFAIPFQLATKIMDKLIRDGRVIRGYIGIGGREIAPLHAQGGGIDQLQGIVVNEVSPDGPAANAGIQVNDLIISVDNKPAISALETMDQVAEIRPGSVIPVVVMRDDKQLTLQVTIQEYPATN | – | ≥ 65% | – |
| D221A/H198P (protein, UniProt P0AEE3 1-355, looked up, variant D221A H198P) Serine endoprotease DegS: MFVKLLRSVAIGLIVGAILLVAMPSLRSLNPLSTPQFDSTDETPASYNLAVRRAAPAVVNVYNRGLNTNSHNQLEIRTLGSGVIMDQRGYIITNKHVINDADQIIVALQDGRVFEALLVGSDSLTDLAVLKINATGGLPTIPINARRVPHIGDVVLAIGNPYNLGQTITQGIISATGRIGLNPTGRQNFLQTDASINPGNSGGALVNSLGELMGINTLSFAKSNDGETPEGIGFAIPFQLATKIMDKLIRDGRVIRGYIGIGGREIAPLHAQGGGIDQLQGIVVNEVSPDGPAANAGIQVNDLIISVDNKPAISALETMDQVAEIRPGSVIPVVVMRDDKQLTLQVTIQEYPATN | – | ≥ 65% | – |
| P229A: DegS variant P229A (protein, left off: His6, N-terminal, state not stated) RSLNPLSTPQFDSTDETPASYNLAVRRAAPAVVNVYNRGLNTNSHNQLEIRTLGSGVIMDQRGYIITNKHVINDADQIIVALQDGRVFEALLVGSDSLTDLAVLKINATGGLPTIPINARRVPHIGDVVLAIGNPYNLGQTITQGIISATGRIGLNPTGRQNFLQTDASINHGNSGGALVNSLGELMGINTLSFDKSNDGETAEGIGFAIPFQLATKIMDKLIRDGRVIRGYIGIGGREIAPLHAQGGGIDQLQGIVVNEVSPDGPAANAGIQVNDLIISVDNKPAISALETMDQVAEIRPGSVIPVVVMRDDKQLTLQVTIQEYPATN | more active than wild-type DegS | – | – |
| H198P/P229A (protein, UniProt P0AEE3 1-355, looked up, variant H198P P229A) Serine endoprotease DegS: MFVKLLRSVAIGLIVGAILLVAMPSLRSLNPLSTPQFDSTDETPASYNLAVRRAAPAVVNVYNRGLNTNSHNQLEIRTLGSGVIMDQRGYIITNKHVINDADQIIVALQDGRVFEALLVGSDSLTDLAVLKINATGGLPTIPINARRVPHIGDVVLAIGNPYNLGQTITQGIISATGRIGLNPTGRQNFLQTDASINPGNSGGALVNSLGELMGINTLSFDKSNDGETAEGIGFAIPFQLATKIMDKLIRDGRVIRGYIGIGGREIAPLHAQGGGIDQLQGIVVNEVSPDGPAANAGIQVNDLIISVDNKPAISALETMDQVAEIRPGSVIPVVVMRDDKQLTLQVTIQEYPATN | – | – | YYF-stimulated cleavage activity, in words [2]: more active than H198P |
| E230A: DegS variant E230A (protein, left off: His6, N-terminal, state not stated) RSLNPLSTPQFDSTDETPASYNLAVRRAAPAVVNVYNRGLNTNSHNQLEIRTLGSGVIMDQRGYIITNKHVINDADQIIVALQDGRVFEALLVGSDSLTDLAVLKINATGGLPTIPINARRVPHIGDVVLAIGNPYNLGQTITQGIISATGRIGLNPTGRQNFLQTDASINHGNSGGALVNSLGELMGINTLSFDKSNDGETPAGIGFAIPFQLATKIMDKLIRDGRVIRGYIGIGGREIAPLHAQGGGIDQLQGIVVNEVSPDGPAANAGIQVNDLIISVDNKPAISALETMDQVAEIRPGSVIPVVVMRDDKQLTLQVTIQEYPATN | – | – | YYF-stimulated cleavage activity relative to wild type (WT background, with YYF, % of wild-type activity): ~ 10% |
| H198P/E230A (protein, UniProt P0AEE3 1-355, looked up, variant H198P E230A) Serine endoprotease DegS: MFVKLLRSVAIGLIVGAILLVAMPSLRSLNPLSTPQFDSTDETPASYNLAVRRAAPAVVNVYNRGLNTNSHNQLEIRTLGSGVIMDQRGYIITNKHVINDADQIIVALQDGRVFEALLVGSDSLTDLAVLKINATGGLPTIPINARRVPHIGDVVLAIGNPYNLGQTITQGIISATGRIGLNPTGRQNFLQTDASINPGNSGGALVNSLGELMGINTLSFDKSNDGETPAGIGFAIPFQLATKIMDKLIRDGRVIRGYIGIGGREIAPLHAQGGGIDQLQGIVVNEVSPDGPAANAGIQVNDLIISVDNKPAISALETMDQVAEIRPGSVIPVVVMRDDKQLTLQVTIQEYPATN | – | – | YYF-stimulated cleavage activity, in words [2]: activity within error of H198P |
